# Results taken from US20130157935A1 (ZEALAND PHARMA A S, published 2013).
# Starred links: 1 amine or outer side, 2 acyl side, 3 side chain; linkers in the order of their positions; H or OH if unused. Groups on a side chain read outwards from the residue. *: point of attachment. γGlu = O=C(O)[C@H](CCC(=O)[*:2])N[*:1]; Palmitoyl = CCCCCCCCCCCCCCCC(=O)*
# Experiments:
# [1] = target: human glucagon-like peptide 1 receptor (GLP-1 R) (human, UniProt P43220 24-463); assay: cell-based or functional assay
# [2] = target: human glucagon receptor (Glucagon-R) (human, UniProt P47871 26-477); assay: cell-based or functional assay
# Chain of human glucagon receptor (Glucagon-R) (P47871 26-477): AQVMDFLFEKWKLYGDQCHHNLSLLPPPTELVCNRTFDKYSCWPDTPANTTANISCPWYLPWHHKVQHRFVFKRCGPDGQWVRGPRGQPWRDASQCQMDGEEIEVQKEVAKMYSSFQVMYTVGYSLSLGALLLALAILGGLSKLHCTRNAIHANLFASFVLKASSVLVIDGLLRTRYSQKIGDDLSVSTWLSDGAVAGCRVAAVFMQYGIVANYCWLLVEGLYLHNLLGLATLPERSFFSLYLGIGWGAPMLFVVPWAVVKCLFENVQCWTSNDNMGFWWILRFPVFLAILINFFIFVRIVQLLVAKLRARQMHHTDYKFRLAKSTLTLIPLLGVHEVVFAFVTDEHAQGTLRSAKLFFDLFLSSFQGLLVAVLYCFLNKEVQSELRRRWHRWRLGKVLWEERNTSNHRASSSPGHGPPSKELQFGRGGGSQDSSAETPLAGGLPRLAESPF
Binder,"GLP-1R EC50 (nM), cAMP formation in HEK293 cells expressing human GLP-1-R [1] [nM]","GluR EC50 (nM), cAMP formation in HEK293 cells expressing human Glucagon-R [2] [nM]"
H-HSQGTFTSDYSKYLDEK([γGlu-Palmitoyl])RAKDFIEWLLSA-NH2 [Compound 6: H-HSQGTFTSDYSKYLDE-K(Hexadecanoyl-isoGlu)-RAKDFIEWLLSA-NH2],0.13,
"HSQGTFTSDYSKYLDERRAKDFIEWLXSA (HELM PEPTIDE1{H.S.Q.G.T.F.T.S.D.Y.S.K.Y.L.D.E.R.R.A.K.D.F.I.E.W.L.K.S.A.[am]}|PEPTIDE2{[CCCCCCCCCCCCCCCC(=O)[*:2]].[gGlu]}$PEPTIDE1,PEPTIDE2,27:R3-2:R2$$$V2.0; SMILES CCCCCCCCCCCCCCCC(=O)N[C@@H](CCC(=O)NCCCC[C@H](NC(=O)[C@H](CC(C)C)NC(=O)[C@H](Cc1c[nH]c2ccccc12)NC(=O)[C@H](CCC(=O)O)NC(=O)[C@@H](NC(=O)[C@H](Cc1ccccc1)NC(=O)[C@H](CC(=O)O)NC(=O)[C@H](CCCCN)NC(=O)[C@H](C)NC(=O)[C@H](CCCNC(=N)N)NC(=O)[C@H](CCCNC(=N)N)NC(=O)[C@H](CCC(=O)O)NC(=O)[C@H](CC(=O)O)NC(=O)[C@H](CC(C)C)NC(=O)[C@H](Cc1ccc(O)cc1)NC(=O)[C@H](CCCCN)NC(=O)[C@H](CO)NC(=O)[C@H](Cc1ccc(O)cc1)NC(=O)[C@H](CC(=O)O)NC(=O)[C@H](CO)NC(=O)[C@@H](NC(=O)[C@H](Cc1ccccc1)NC(=O)[C@@H](NC(=O)CNC(=O)[C@H](CCC(N)=O)NC(=O)[C@H](CO)NC(=O)[C@@H](N)Cc1c[nH]cn1)[C@@H](C)O)[C@@H](C)O)[C@@H](C)CC)C(=O)N[C@@H](CO)C(=O)N[C@@H](C)C(N)=O)C(=O)O) [Compound 2: H-HSQGTFTSDYSKYLDERRAKDFIEWL-K(Hexadecanoyl-isoGlu)-SA-NH2]",3.09,0.81
"HSQGTFTSDYSKYLDXRRAKDFIEWLLSA (HELM PEPTIDE1{H.S.Q.G.T.F.T.S.D.Y.S.K.Y.L.D.K.R.R.A.K.D.F.I.E.W.L.L.S.A.[am]}|PEPTIDE2{[CCCCCCCCCCCCCCCC(=O)[*:2]].[gGlu]}$PEPTIDE1,PEPTIDE2,16:R3-2:R2$$$V2.0; SMILES CCCCCCCCCCCCCCCC(=O)N[C@@H](CCC(=O)NCCCC[C@H](NC(=O)[C@H](CC(=O)O)NC(=O)[C@H](CC(C)C)NC(=O)[C@H](Cc1ccc(O)cc1)NC(=O)[C@H](CCCCN)NC(=O)[C@H](CO)NC(=O)[C@H](Cc1ccc(O)cc1)NC(=O)[C@H](CC(=O)O)NC(=O)[C@H](CO)NC(=O)[C@@H](NC(=O)[C@H](Cc1ccccc1)NC(=O)[C@@H](NC(=O)CNC(=O)[C@H](CCC(N)=O)NC(=O)[C@H](CO)NC(=O)[C@@H](N)Cc1c[nH]cn1)[C@@H](C)O)[C@@H](C)O)C(=O)N[C@@H](CCCNC(=N)N)C(=O)N[C@@H](CCCNC(=N)N)C(=O)N[C@@H](C)C(=O)N[C@@H](CCCCN)C(=O)N[C@@H](CC(=O)O)C(=O)N[C@@H](Cc1ccccc1)C(=O)N[C@H](C(=O)N[C@@H](CCC(=O)O)C(=O)N[C@@H](Cc1c[nH]c2ccccc12)C(=O)N[C@@H](CC(C)C)C(=O)N[C@@H](CC(C)C)C(=O)N[C@@H](CO)C(=O)N[C@@H](C)C(N)=O)[C@@H](C)CC)C(=O)O) [Compound 5: H-HSQGTFTSDYSKYLD-K(Hexadecanoyl-isoGlu)-RRAKDFIEWLLSA-NH2]",0.35,0.19
"HSQGTFTSDYSKYLDERRAKDFIEWLLXA (HELM PEPTIDE1{H.S.Q.G.T.F.T.S.D.Y.S.K.Y.L.D.E.R.R.A.K.D.F.I.E.W.L.L.K.A.[am]}|PEPTIDE2{[CCCCCCCCCCCCCCCC(=O)[*:2]].[gGlu]}$PEPTIDE1,PEPTIDE2,28:R3-2:R2$$$V2.0; SMILES CCCCCCCCCCCCCCCC(=O)N[C@@H](CCC(=O)NCCCC[C@H](NC(=O)[C@H](CC(C)C)NC(=O)[C@H](CC(C)C)NC(=O)[C@H](Cc1c[nH]c2ccccc12)NC(=O)[C@H](CCC(=O)O)NC(=O)[C@@H](NC(=O)[C@H](Cc1ccccc1)NC(=O)[C@H](CC(=O)O)NC(=O)[C@H](CCCCN)NC(=O)[C@H](C)NC(=O)[C@H](CCCNC(=N)N)NC(=O)[C@H](CCCNC(=N)N)NC(=O)[C@H](CCC(=O)O)NC(=O)[C@H](CC(=O)O)NC(=O)[C@H](CC(C)C)NC(=O)[C@H](Cc1ccc(O)cc1)NC(=O)[C@H](CCCCN)NC(=O)[C@H](CO)NC(=O)[C@H](Cc1ccc(O)cc1)NC(=O)[C@H](CC(=O)O)NC(=O)[C@H](CO)NC(=O)[C@@H](NC(=O)[C@H](Cc1ccccc1)NC(=O)[C@@H](NC(=O)CNC(=O)[C@H](CCC(N)=O)NC(=O)[C@H](CO)NC(=O)[C@@H](N)Cc1c[nH]cn1)[C@@H](C)O)[C@@H](C)O)[C@@H](C)CC)C(=O)N[C@@H](C)C(N)=O)C(=O)O) [Compound 4: H-HSQGTFTSDYSKYLDERRAKDFIEWLL-K(Hexadecanoyl-isoGlu)-A-NH2]",0.31,0.25
HSQGTFTSDYSKYLDERRAXDFIEWLLSA (K(Hexadecanoyl-isoGlu) at position 20; C-terminal amide (NH2)) [Compound 3: H-HSQGTFTSDYSKYLDERRA-K(Hexadecanoyl-isoGlu)-DFIEWLLSA-NH2],0.64,0.6
"HXQGTFTSDYSKYLDEXRAKDFIEWLLSA (HELM PEPTIDE1{H.[Aib].Q.G.T.F.T.S.D.Y.S.K.Y.L.D.E.K.R.A.K.D.F.I.E.W.L.L.S.A.[am]}|PEPTIDE2{[CCCCCCCCCCCCCCCC(=O)[*:2]].[gGlu]}$PEPTIDE1,PEPTIDE2,17:R3-2:R2$$$V2.0; SMILES CCCCCCCCCCCCCCCC(=O)N[C@@H](CCC(=O)NCCCC[C@H](NC(=O)[C@H](CCC(=O)O)NC(=O)[C@H](CC(=O)O)NC(=O)[C@H](CC(C)C)NC(=O)[C@H](Cc1ccc(O)cc1)NC(=O)[C@H](CCCCN)NC(=O)[C@H](CO)NC(=O)[C@H](Cc1ccc(O)cc1)NC(=O)[C@H](CC(=O)O)NC(=O)[C@H](CO)NC(=O)[C@@H](NC(=O)[C@H](Cc1ccccc1)NC(=O)[C@@H](NC(=O)CNC(=O)[C@H](CCC(N)=O)NC(=O)C(C)(C)NC(=O)[C@@H](N)Cc1c[nH]cn1)[C@@H](C)O)[C@@H](C)O)C(=O)N[C@@H](CCCNC(=N)N)C(=O)N[C@@H](C)C(=O)N[C@@H](CCCCN)C(=O)N[C@@H](CC(=O)O)C(=O)N[C@@H](Cc1ccccc1)C(=O)N[C@H](C(=O)N[C@@H](CCC(=O)O)C(=O)N[C@@H](Cc1c[nH]c2ccccc12)C(=O)N[C@@H](CC(C)C)C(=O)N[C@@H](CC(C)C)C(=O)N[C@@H](CO)C(=O)N[C@@H](C)C(N)=O)[C@@H](C)CC)C(=O)O) [Compound 7: H-H-Aib-QGTFTSDYSKYLDE-K(Hexadecanoyl-isoGlu)-RAKDFIEWLLSA-NH2]",0.1,0.16
